Data taken from paper PMC7110780, “Multimodular fused acetyl–feruloyl esterases from soil and gut Bacteroidetes improve xylanase depolymerization of recalcitrant biomass” (Biotechnology for Biofuels, 2020).

B1: FjCE6 (Flavobacterium johnsoniae UW101) (protein)
chain: SQDPNFHVYLSFGQSNMEGFAKIEPQDKTGVNERFQVLSAVDCPEMGREKGKWYTAVPPLCRCTTGLTPMDYFGRTMISNLPQNIKVGVVNVAVGGCKIELFDKNNFESYVANSPDWLKNIVKQYDGNPYGRLVEMAKIAQKKGVIKGILLHQGESNTGDTLWPQKVKIVYDNLIKDLNLDPKKVPLLSGETVNEDQNGKCGSMNKIIAKLPQVLPNSYIISSKGCKADADFLHFSPEGYRELGKRYADKMLSLSGYMLFNGKE
notes: domain borders not in main text
B2: FjCE1 (Flavobacterium johnsoniae UW101) (protein)
chain: FDEVNANAPQGKVEIVSYESKTVGSTRKATIYTPPGFNKNKKYPVLYLLHGIGGDEKEWLNGGQPNVILDNLYADGKLEPMIVVMPNGRAMKDDRAGGDIMAADKVKAFSVFEKDLLNDLIPFIEKKYPVLKDREHRAIAGLSMGGGQSLNFGLGNLDQFAWVGAFSAAPNTKIGTELLAKPEEAKKKLKLLWISCGDKDWLIENSTRTHDYLAKNNVPHIYYIEPGVHDFKVWKNGLYMFSQFLFKEVDPLVFQKYSISAYTIEK
notes: as for B1

Experiments:
Assay in all cases: purified protein
Type in all cases: biochemical, Flavobacterium johnsoniae
purified protein [1] = substrate: CC(=O)Oc1ccc2c(C)cc(=O)oc2c1; details: 100 mM buffer
purified protein [2] = substrate: COC(=O)/C=C/c1ccc(O)c(O)c1; details: pH 6.5, 25 °C, 100 mM buffer
purified protein [3] = substrate: COC(=O)/C=C/c1ccc(O)c(OC)c1; details: pH 6.5, 25 °C, 100 mM buffer
purified protein [4] = substrate: COC(=O)/C=C/c1cc(OC)c(O)c(OC)c1; details: pH 6.5, 25 °C, 100 mM buffer
purified protein [5] = substrate: COC(=O)/C=C/c1ccc(O)cc1; details: pH 6.5, 25 °C, 100 mM buffer

| Protein | Km (purified protein [1]; pH 8, 25 °C) [µM] | kcat (purified protein [1]; pH 8, 25 °C) [s⁻¹] | kcat/Km (purified protein [1]; pH 8, 25 °C) [M⁻¹ s⁻¹] | Km (purified protein [2]) [µM] | kcat (purified protein [2]) [s⁻¹] | kcat/Km (purified protein [2]) [M⁻¹ s⁻¹] | Km (purified protein [3]) [µM] | kcat (purified protein [3]) [s⁻¹] | kcat/Km (purified protein [3]) [M⁻¹ s⁻¹] | Km (purified protein [1]; pH 6.5, 25 °C) [µM] | kcat (purified protein [1]; pH 6.5, 25 °C) [s⁻¹] | kcat/Km (purified protein [1]; pH 6.5, 25 °C) [M⁻¹ s⁻¹] | Km (purified protein [4]) [µM] | kcat (purified protein [4]) [s⁻¹] | kcat/Km (purified protein [4]) [M⁻¹ s⁻¹] | Km (purified protein [5]) [µM] | kcat (purified protein [5]) [s⁻¹] | kcat/Km (purified protein [5]) [M⁻¹ s⁻¹] |
| --- | --- | --- | --- | --- | --- | --- | --- | --- | --- | --- | --- | --- | --- | --- | --- | --- | --- | --- |
| B1 | 150 ± 20 | 6.7 ± 0.2 | 43400 ± 4400 | – | – | – | – | – | – | – | – | – | – | – | – | – | – | – |
| B2 | – | – | – | 340 ± 100 | 0.83 ± 0.14 | 2700 ± 1000 | 110 ± 20 | 2.5 ± 0.2 | 23100 ± 4500 | 70 ± 10 | 0.61 ± 0.03 | 8700 ± 1700 | 140 ± 20 | 1.8 ± 0.1 | 13000 ± 2200 | 390 ± 120 | 1.5 ± 0.3 | 3900 ± 1400 |
